For assay [1], the target named is T1, recombinant human activated FVII (FVIIa) (human, UniProt P08709 61-212; P08709 213-466, ten glutamate residues of the Gla domain may be gamma-carboxylated).
T1 sequence 1: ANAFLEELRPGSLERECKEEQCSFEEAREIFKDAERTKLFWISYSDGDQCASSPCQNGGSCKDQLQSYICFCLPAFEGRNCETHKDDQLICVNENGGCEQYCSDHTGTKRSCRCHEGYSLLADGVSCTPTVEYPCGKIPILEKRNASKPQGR
T1 sequence 2: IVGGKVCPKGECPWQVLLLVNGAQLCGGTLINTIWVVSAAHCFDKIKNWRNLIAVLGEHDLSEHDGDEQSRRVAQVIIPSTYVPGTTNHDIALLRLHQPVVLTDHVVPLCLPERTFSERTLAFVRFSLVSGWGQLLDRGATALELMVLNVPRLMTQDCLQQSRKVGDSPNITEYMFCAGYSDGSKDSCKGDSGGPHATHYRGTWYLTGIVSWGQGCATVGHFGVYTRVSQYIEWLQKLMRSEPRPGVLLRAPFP
Briefly: cell-based or functional assay.

Assay [2] concerns the target T2, sTLT1 (SEQ ID No: 3 with six histidine residues added at the C-terminus) (human, UniProt Q86YW5 16-162).
T2 construct: Soluble TLT-1 used in SPR
T2 sequence: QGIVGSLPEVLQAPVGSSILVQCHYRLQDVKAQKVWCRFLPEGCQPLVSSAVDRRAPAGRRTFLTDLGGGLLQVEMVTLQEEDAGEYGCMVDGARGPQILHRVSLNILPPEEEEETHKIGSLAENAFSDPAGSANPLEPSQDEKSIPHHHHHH
Briefly: dissociation constant listed with the stimulatory activities; value of the anti-TLT-1 arm.

For assay [3], the target named is T1, recombinant human activated FVII (FVIIa). Kind of assay: dissociation constant listed with the stimulatory activities; method not given.
The target in assay [4] is T3, recombinant human activated Factor VII (FVIIa) (human, UniProt P08709 61-212; P08709 213-466, ten glutamate residues of the Gla domain may be gamma-carboxylated).
T3 construct: chains tethered by a disulfide bond; also called Factor VIIa; rFVIIa
T3 sequence 1: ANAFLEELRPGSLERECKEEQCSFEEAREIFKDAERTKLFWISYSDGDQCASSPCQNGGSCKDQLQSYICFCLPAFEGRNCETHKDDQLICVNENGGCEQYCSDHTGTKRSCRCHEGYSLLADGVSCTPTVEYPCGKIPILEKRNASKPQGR
T3 sequence 2: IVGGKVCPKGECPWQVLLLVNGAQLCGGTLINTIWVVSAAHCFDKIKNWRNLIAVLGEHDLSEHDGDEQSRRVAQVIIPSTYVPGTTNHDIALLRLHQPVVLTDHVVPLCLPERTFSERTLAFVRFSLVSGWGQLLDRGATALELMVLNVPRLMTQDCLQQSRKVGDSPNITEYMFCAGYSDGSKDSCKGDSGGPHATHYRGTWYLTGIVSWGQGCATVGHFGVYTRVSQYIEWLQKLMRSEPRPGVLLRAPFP
Briefly: SPR (Biacore).

The target of assay [5] is T3, recombinant human activated Factor VII …. Briefly: cell-based or functional assay.

B1: biAb0011 (bispecific antibody, human IgG4 S228P, kappa)
heavy 1: QVQLQESGPGLVEPSQTLSLTCTVSGYSITSDSAWSWIRQPPGKKLEWIGYIQYSGSTNYNPSLKSRVTISRDTSKNQFSLKLSSVTAADTAVYYCARSVNYYGNSFAVGYWGQGTLVTVSSASTKGPSVFPLAPCSRSTSESTAALGCLVKDYFPEPVTVSWNSGALTSGVHTFPAVLQSSGLYSLSSVVTVPSSSLGTKTYTCNVDHKPSNTKVDKRVESKYGPPCPPCPAPEFLGGPSVFLFPPKPKDTLMISRTPEVTCVVVDVSQEDPEVQFNWYVDGVEVHNAKTKPREEQFNSTYRVVSVLTVLHQDWLNGKEYKCKVSNKGLPSSIEKTISKAKGQPREPQVYTLPPSQEEMTKNQVSLTCLVKGFYPSDIAVEWESNGQPENNYKTTPPVLDSDGSFLLYSKLTVDKSRWQEGNVFSCSVMHEALHNHYTQKSLSLSLGK
light 1: EIVLTQSPATLSLSPGERATLSCRASQGVSDYLHWYQQKPGQAPRLLIKYASQPATGIPARFSGSGSGTDFTLTISSLEPEDFAVYYCQNGHSFPLTFGQGTKLEIKRTVAAPSVFIFPPSDEQLKSGTASVVCLLNNFYPREAKVQWKVDNALQSGNSQESVTEQDSKDSTYSLSSTLTLSKADYEKHKVYACEVTHQGLSSPVTKSFNRGEC
heavy 2: not shown
light 2: DIVMTQTPLSSPVTLGQPASISCRSSQSLVHRQGNTYFHWLQQRPGQPPRLLIYKVSNRFSGVPDRFSGSGAGTDFTLKISRVEAEDVGVYYCSQSTHVPYTFGQGTKLEIKRTVAAPSVFIFPPSDEQLKSGTASVVCLLNNFYPREAKVQWKVDNALQSGNSQESVTEQDSKDSTYSLSSTLTLSKADYEKHKVYACEVTHQGLSSPVTKSFNRGEC
notes: Duobody, constant domain type H (IgG4): anti-FVII(a) arm mAb0875, anti-TLT-1 arm mAb1076; also called mAb0875 x mAb1076
With B1, the “Stimulation (fold): FXa generated by FVIIa with lipidated TLT-1 and 100 nM biAb, relative to free FVIIa” value (shortened to “Stimulation (fold) … relative to free FVIIa”) in assay [1] was 20.3 fold. The dissociation constant (Kd) (commonly the free concentration of one partner at which half of the binding sites on the other are occupied at equilibrium, for simple one-to-one binding) in assay [2] came out at 2.9 nM; in assay [3] it was 0.28 nM.

B2: biAb0091 (bispecific antibody, human IgG4 S228P, kappa)
heavy 1: QVQLQESGPGLVEPSQTLSLTCTVSGYSITSDSAWSWIRQPPGKKLEWIGYIQYSGSTNYNPSLKSRVTISRDTSKNQFSLKLSSVTAADTAVYYCARSVNYYGNSFAVGYWGQGTLVTVSSASTKGPSVFPLAPCSRSTSESTAALGCLVKDYFPEPVTVSWNSGALTSGVHTFPAVLQSSGLYSLSSVVTVPSSSLGTKTYTCNVDHKPSNTKVDKRVESKYGPPCPPCPAPEFLGGPSVFLFPPKPKDTLMISRTPEVTCVVVDVSQEDPEVQFNWYVDGVEVHNAKTKPREEQFNSTYRVVSVLTVLHQDWLNGKEYKCKVSNKGLPSSIEKTISKAKGQPREPQVYTLPPSQEEMTKNQVSLTCLVKGFYPSDIAVEWESNGQPENNYKTTPPVLDSDGSFLLYSKLTVDKSRWQEGNVFSCSVMHEALHNHYTQKSLSLSLGK
light 1: EIVLTQSPATLSLSPGERATLSCRASQGVSDYLHWYQQKPGQAPRLLIKYASQPATGIPARFSGSGSGTDFTLTISSLEPEDFAVYYCQNGHSFPLTFGQGTKLEIKRTVAAPSVFIFPPSDEQLKSGTASVVCLLNNFYPREAKVQWKVDNALQSGNSQESVTEQDSKDSTYSLSSTLTLSKADYEKHKVYACEVTHQGLSSPVTKSFNRGEC
heavy 2: not shown
light 2: DIVMTQTPLSSPVTLGQPASISCRSSQSLVHRNGNTYFHWLQQRPGQPPRLLIYKVSNRFSGVPDRFSGSGAGTDFTLKISRVEAEDVGVYYCSQSTHVPYTFGQGTKLEIKRTVAAPSVFIFPPSDEQLKSGTASVVCLLNNFYPREAKVQWKVDNALQSGNSQESVTEQDSKDSTYSLSSTLTLSKADYEKHKVYACEVTHQGLSSPVTKSFNRGEC
notes: Duobody, constant domain type H (IgG4): anti-FVII(a) arm mAb0875, anti-TLT-1 arm mAb1049; also called mAb0875 x mAb1049
As for B2, the “Stimulation (fold) … relative to free FVIIa” value in assay [1] was 11.3 fold. The values for the Kd in assay [2] and in assay [3] were 320 nM and 0.28 nM, respectively.

B3: biAb0016 (bispecific antibody, human IgG4 S228P, kappa)
heavy 1: QVQLQESGPGLVEPSQTLSLTCTVSGYSITSDSAWSWIRQPPGKKLEWIGYIQYSGSTNYNPSLKSRVTISRDTSKNQFSLKLSSVTAADTAVYYCARSVNYYGNSFAVGYWGQGTLVTVSSASTKGPSVFPLAPCSRSTSESTAALGCLVKDYFPEPVTVSWNSGALTSGVHTFPAVLQSSGLYSLSSVVTVPSSSLGTKTYTCNVDHKPSNTKVDKRVESKYGPPCPPCPAPEFLGGPSVFLFPPKPKDTLMISRTPEVTCVVVDVSQEDPEVQFNWYVDGVEVHNAKTKPREEQFNSTYRVVSVLTVLHQDWLNGKEYKCKVSNKGLPSSIEKTISKAKGQPREPQVYTLPPSQEEMTKNQVSLTCLVKGFYPSDIAVEWESNGQPENNYKTTPPVLDSDGSFLLYSKLTVDKSRWQEGNVFSCSVMHEALHNHYTQKSLSLSLGK
light 1: EIVLTQSPATLSLSPGERATLSCRASQGVSDYLHWYQQKPGQAPRLLIKYASQPATGIPARFSGSGSGTDFTLTISSLEPEDFAVYYCQNGHSFPLTFGQGTKLEIKRTVAAPSVFIFPPSDEQLKSGTASVVCLLNNFYPREAKVQWKVDNALQSGNSQESVTEQDSKDSTYSLSSTLTLSKADYEKHKVYACEVTHQGLSSPVTKSFNRGEC
heavy 2: not shown
light 2: DIVMTQTPLSSPVTLGQPASISCRSSQSLVHRPGNTYFHWLQQRPGQPPRLLIYKVSNRFSGVPDRFSGSGAGTDFTLKISRVEAEDVGVYYCSQSTHVPYTFGQGTKLEIKRTVAAPSVFIFPPSDEQLKSGTASVVCLLNNFYPREAKVQWKVDNALQSGNSQESVTEQDSKDSTYSLSSTLTLSKADYEKHKVYACEVTHQGLSSPVTKSFNRGEC
notes: Duobody, constant domain type H (IgG4): anti-FVII(a) arm mAb0875, anti-TLT-1 arm mAb1038; also called mAb0875 x mAb1038
In the case of B3, the “Stimulation (fold) … relative to free FVIIa” value in assay [1] was determined as 17.3 fold. The figures for the Kd in assay [2] and in assay [3] were 19 nM and 0.28 nM, respectively.

B4: mAb0707(OA) (antibody, human IgG4 S228P, kappa)
heavy: QVQLQESGPGLVEPSQTLSLTCTVSGYSISSDSAWSWIRQPPGKGLEWIGYIQYSGSTNYNPSLKSRVTISRDTSKNQFSLKLSSVTAADTAVYYCARSVNYYGNSFAVGPWGQGTLVTVSSASTKGPSVFPLAPCSRSTSESTAALGCLVKDYFPEPVTVSWNSGALTSGVHTFPAVLQSSGLYSLSSVVTVPSSSLGTKTYTCNVDHKPSNTKVDKRVESKYGPPCPPCPAPEFLGGPSVFLFPPKPKDTLMISRTPEVTCVVVDVSQEDPEVQFNWYVDGVEVHNAKTKPREEQFNSTYRVVSVLTVLHQDWLNGKEYKCKVSNKGLPSSIEKTISKAKGQPREPQVYTLPPSQEEMTKNQVSLSCAVKGFYPSDIAVEWESNGQPENNYKTTPPVLDSDGSFFLVSRLTVDKSRWQEGNVFSCSVMHEALHNHYTQKSLSLSLGK
light: EIVLTQSPATLSLSPGERATLSCRASQGISDYLHWYQQKPGEAPRLLIKYTSQPATGIPARFSGSGSGTDFTLTISSLEPEDFAVYYCQNGHSFPLTFGQGTKLEIKRTVAAPSVFIFPPSDEQLKSGTASVVCLLNNFYPREAKVQWKVDNALQSGNSQESVTEQDSKDSTYSLSSTLTLSKADYEKHKVYACEVTHQGLSSPVTKSFNRGEC
chain: not shown
notes: one-armed (OA) antibody, constant domain type F (knob-in-hole)
B4: the Kd in assay [4] worked out at 0.106 nM. In addition, in assay [5], the “AT inhibition (kinh %)” value was 129% and the “TGT activity (%% FVIIa)” value amounted to 102%.

B5: mAb0710(OA) (antibody, human IgG4 S228P, kappa)
heavy: QVQLQESGPGLVKPSQTLSLTCTVSGYSISSDSAWSWIRQFPGKGLEWIGYIQYSGSTNYNPSLKSRVTISRDTSKNQFSLKLSSVTAADTAVYYCARSVNYYGNSFAVGPWGQGTLVTVSSASTKGPSVFPLAPCSRSTSESTAALGCLVKDYFPEPVTVSWNSGALTSGVHTFPAVLQSSGLYSLSSVVTVPSSSLGTKTYTCNVDHKPSNTKVDKRVESKYGPPCPPCPAPEFLGGPSVFLFPPKPKDTLMISRTPEVTCVVVDVSQEDPEVQFNWYVDGVEVHNAKTKPREEQFNSTYRVVSVLTVLHQDWLNGKEYKCKVSNKGLPSSIEKTISKAKGQPREPQVYTLPPSQEEMTKNQVSLSCAVKGFYPSDIAVEWESNGQPENNYKTTPPVLDSDGSFFLVSRLTVDKSRWQEGNVFSCSVMHEALHNHYTQKSLSLSLGK
light: EIVLTQSPATLSLSPGERATLSCRASQGISDYLHWYQQKPGQAPRLLIKYTSQPATGIPARFSGSGSGTDFTLTISSLEPEDFAVYYCQNGHSFPLTFGQGTKLEIKRTVAAPSVFIFPPSDEQLKSGTASVVCLLNNFYPREAKVQWKVDNALQSGNSQESVTEQDSKDSTYSLSSTLTLSKADYEKHKVYACEVTHQGLSSPVTKSFNRGEC
chain: not shown
notes: as for B4
Take B5: in assay [4], the Kd was 0.128 nM. In assay [5], the “AT inhibition (kinh %)” value was found to be 136% and the “TGT activity (%% FVIIa)” value came out at 102%.
